Publication PMC2966277 (Cell, 2010)
Each block holds one binder with its values, some of them ahead of it.

What was measured:
[1] = molecular target: microtubules (UniProt Q6B856 1-445); assay: co-sedimentation
[2] = molecular target: the molecule itself; assay: SEC-MALS
[3] = molecular target: T1, GFP-PRC1-FL (GFP-tagged full-length PRC1, aa 1-620) (human), O43663; assay: single-molecule fluorescence intensity analysis; conditions: remark: other sources report otherwise
T1 chain: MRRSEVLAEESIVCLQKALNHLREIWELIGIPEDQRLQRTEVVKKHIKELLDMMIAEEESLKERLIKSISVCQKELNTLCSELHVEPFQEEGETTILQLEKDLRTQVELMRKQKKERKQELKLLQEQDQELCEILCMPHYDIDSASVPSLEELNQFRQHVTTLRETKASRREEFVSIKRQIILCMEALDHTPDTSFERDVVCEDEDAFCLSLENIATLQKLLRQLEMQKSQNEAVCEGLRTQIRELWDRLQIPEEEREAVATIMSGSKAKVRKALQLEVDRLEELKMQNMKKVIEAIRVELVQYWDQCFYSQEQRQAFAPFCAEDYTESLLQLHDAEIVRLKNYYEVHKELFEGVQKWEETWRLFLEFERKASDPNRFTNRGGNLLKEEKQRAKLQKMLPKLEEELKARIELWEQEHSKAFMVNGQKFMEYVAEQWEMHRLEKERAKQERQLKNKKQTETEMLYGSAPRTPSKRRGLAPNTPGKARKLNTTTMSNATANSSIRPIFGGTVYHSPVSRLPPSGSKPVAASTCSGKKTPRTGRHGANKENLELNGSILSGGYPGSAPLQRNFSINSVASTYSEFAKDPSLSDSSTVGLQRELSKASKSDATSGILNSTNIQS

[4] = molecular target: T2, PRC1-FL (untagged full-length PRC1) (human), O43663; conditions: remark: other sources report otherwise
T2 chain: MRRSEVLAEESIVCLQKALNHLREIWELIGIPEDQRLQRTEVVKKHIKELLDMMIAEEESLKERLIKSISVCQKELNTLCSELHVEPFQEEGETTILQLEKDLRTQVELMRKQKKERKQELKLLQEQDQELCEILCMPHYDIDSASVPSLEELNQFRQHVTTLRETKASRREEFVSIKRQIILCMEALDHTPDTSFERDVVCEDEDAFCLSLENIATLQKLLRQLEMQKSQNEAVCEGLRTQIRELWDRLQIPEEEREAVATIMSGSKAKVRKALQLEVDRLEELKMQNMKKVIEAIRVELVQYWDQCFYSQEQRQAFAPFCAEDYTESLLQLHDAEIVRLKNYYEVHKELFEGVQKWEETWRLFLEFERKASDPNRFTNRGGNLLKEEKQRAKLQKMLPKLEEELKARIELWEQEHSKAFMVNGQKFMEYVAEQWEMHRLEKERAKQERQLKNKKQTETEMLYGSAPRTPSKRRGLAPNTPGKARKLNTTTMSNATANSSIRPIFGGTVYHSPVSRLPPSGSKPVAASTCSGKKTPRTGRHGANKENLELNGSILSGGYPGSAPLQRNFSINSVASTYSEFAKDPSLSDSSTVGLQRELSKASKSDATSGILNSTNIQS

B1: PRC1-S (aa 341-466) (domain or fragment, human, UniProt O43663 341-466, looked up)
chain: LKNYYEVHKELFEGVQKWEETWRLFLEFERKASDPNRFTNRGGNLLKEEKQRAKLQKMLPKLEEELKARIELWEQEHSKAFMVNGQKFMEYVAEQWEMHRLEKERAKQERQLKNKKQTETEMLYGS
Kd [1]: 3300 ± 1800 nM

B2: PRC1-NSΔC (aa 1-486) (domain or fragment, human, UniProt O43663 1-486, looked up)
chain: MRRSEVLAEESIVCLQKALNHLREIWELIGIPEDQRLQRTEVVKKHIKELLDMMIAEEESLKERLIKSISVCQKELNTLCSELHVEPFQEEGETTILQLEKDLRTQVELMRKQKKERKQELKLLQEQDQELCEILCMPHYDIDSASVPSLEELNQFRQHVTTLRETKASRREEFVSIKRQIILCMEALDHTPDTSFERDVVCEDEDAFCLSLENIATLQKLLRQLEMQKSQNEAVCEGLRTQIRELWDRLQIPEEEREAVATIMSGSKAKVRKALQLEVDRLEELKMQNMKKVIEAIRVELVQYWDQCFYSQEQRQAFAPFCAEDYTESLLQLHDAEIVRLKNYYEVHKELFEGVQKWEETWRLFLEFERKASDPNRFTNRGGNLLKEEKQRAKLQKMLPKLEEELKARIELWEQEHSKAFMVNGQKFMEYVAEQWEMHRLEKERAKQERQLKNKKQTETEMLYGSAPRTPSKRRGLAPNTPGKAR
stoichiometry N [2]: 2

B5: PRC1-FL (untagged full-length PRC1), O43663 1-620 (natural protein)
chain: MRRSEVLAEESIVCLQKALNHLREIWELIGIPEDQRLQRTEVVKKHIKELLDMMIAEEESLKERLIKSISVCQKELNTLCSELHVEPFQEEGETTILQLEKDLRTQVELMRKQKKERKQELKLLQEQDQELCEILCMPHYDIDSASVPSLEELNQFRQHVTTLRETKASRREEFVSIKRQIILCMEALDHTPDTSFERDVVCEDEDAFCLSLENIATLQKLLRQLEMQKSQNEAVCEGLRTQIRELWDRLQIPEEEREAVATIMSGSKAKVRKALQLEVDRLEELKMQNMKKVIEAIRVELVQYWDQCFYSQEQRQAFAPFCAEDYTESLLQLHDAEIVRLKNYYEVHKELFEGVQKWEETWRLFLEFERKASDPNRFTNRGGNLLKEEKQRAKLQKMLPKLEEELKARIELWEQEHSKAFMVNGQKFMEYVAEQWEMHRLEKERAKQERQLKNKKQTETEMLYGSAPRTPSKRRGLAPNTPGKARKLNTTTMSNATANSSIRPIFGGTVYHSPVSRLPPSGSKPVAASTCSGKKTPRTGRHGANKENLELNGSILSGGYPGSAPLQRNFSINSVASTYSEFAKDPSLSDSSTVGLQRELSKASKSDATSGILNSTNIQS
stoichiometry N [4]: 2

The remaining lines, values ahead:

Kd [1]: 600 ± 300 nM
B3: PRC1-SC (aa 341-620) (domain or fragment, human, UniProt O43663 341-620, looked up)
chain: LKNYYEVHKELFEGVQKWEETWRLFLEFERKASDPNRFTNRGGNLLKEEKQRAKLQKMLPKLEEELKARIELWEQEHSKAFMVNGQKFMEYVAEQWEMHRLEKERAKQERQLKNKKQTETEMLYGSAPRTPSKRRGLAPNTPGKARKLNTTTMSNATANSSIRPIFGGTVYHSPVSRLPPSGSKPVAASTCSGKKTPRTGRHGANKENLELNGSILSGGYPGSAPLQRNFSINSVASTYSEFAKDPSLSDSSTVGLQRELSKASKSDATSGILNSTNIQS

stoichiometry N [3]: 2
B4: GFP-PRC1-FL (GFP-tagged full-length PRC1, aa 1-620), O43663 1-620 (natural protein)
chain: MRRSEVLAEESIVCLQKALNHLREIWELIGIPEDQRLQRTEVVKKHIKELLDMMIAEEESLKERLIKSISVCQKELNTLCSELHVEPFQEEGETTILQLEKDLRTQVELMRKQKKERKQELKLLQEQDQELCEILCMPHYDIDSASVPSLEELNQFRQHVTTLRETKASRREEFVSIKRQIILCMEALDHTPDTSFERDVVCEDEDAFCLSLENIATLQKLLRQLEMQKSQNEAVCEGLRTQIRELWDRLQIPEEEREAVATIMSGSKAKVRKALQLEVDRLEELKMQNMKKVIEAIRVELVQYWDQCFYSQEQRQAFAPFCAEDYTESLLQLHDAEIVRLKNYYEVHKELFEGVQKWEETWRLFLEFERKASDPNRFTNRGGNLLKEEKQRAKLQKMLPKLEEELKARIELWEQEHSKAFMVNGQKFMEYVAEQWEMHRLEKERAKQERQLKNKKQTETEMLYGSAPRTPSKRRGLAPNTPGKARKLNTTTMSNATANSSIRPIFGGTVYHSPVSRLPPSGSKPVAASTCSGKKTPRTGRHGANKENLELNGSILSGGYPGSAPLQRNFSINSVASTYSEFAKDPSLSDSSTVGLQRELSKASKSDATSGILNSTNIQS
